Test results published in PMC6345565.

Target: PICK1 WT without SNAP-tag (rat (Rattus norvegicus)), Q9EP80
Experiment: fluorescence polarisation; competition: increasing unlabelled peptide, fixed 70% saturating PICK1 with OrG DAT C13; 50 mM Tris pH 7.4, 125 mM NaCl, 1 mM DTT, 0.01% Triton X-100; on ice; apparent Ki

EVRQFTLRHWLKV (modifications not checked) [unlabeled peptide of the DAT C-terminus (competitor in fluorescence polarisation)]
Ki: 2100 nM
